These results are taken from the supplement of paper PMC7125110.

Sequences and labels used below:
B1: glmS ribozyme (parent)
chain: AUAAAAGCGCCAGAACUACAGAAAUGUAGUUGACGAGGAGGAGGUUUAUCGAAUUUUCGGCGGAUGCCUCCAAA

± gives the standard error. For some assays here: Fewer inactive variants are shown than the library holds. Where only a bound is given, the exact number is not on record here.

What all share (settings): with glucosamine-6-phosphate
Series [1] covers variants of B1. Kind of series: kcat; higher = faster cleavage; RNA array. In short, it runs like this: (§1)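 Barcoded ribozyme variants were transcribed in situ on sequenced MiSeq chips by E. coli RNA polymerase. At 37 °C, a hybridised Cy3 probe tracked them while glucosamine-6-phosphate (40 μM to 10 mM) in HEPES/KCl/Mg(OAc)2 buffer flowed in and tiles were imaged over ~14 h. Per-tile medians of signals normalised to baseline and to non-cleaving reference variants were fit to one- or two-exponential decays, giving kobs. kcat and KM came from weighted Michaelis–Menten fits across concentrations.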

Variants of B1 are the subject of series [2]. Kind of series: KM; higher = weaker cofactor use; RNA array. Put shortly:
as §1

The variants in series [3] derive from B1. Briefly: self-cleavage kobs at 40 uM GlcN6P; higher = faster cleavage; RNA array. In short, it runs like this:
as §1

Series [4] covers variants of B1. Briefly: self-cleavage kobs at 160 uM GlcN6P; higher = faster cleavage; RNA array. Put shortly: as §1
In series [5] the parent is B1. Briefly: self-cleavage kobs at 640 uM GlcN6P; higher = faster cleavage; RNA array. Put shortly:
as §1

The variants in series [6] derive from B1. Kind of series: self-cleavage kobs at 2500 uM GlcN6P; higher = faster cleavage; RNA array. Put shortly:
as §1

Series [7] covers variants of B1. Briefly: self-cleavage kobs at 10000 uM GlcN6P; higher = faster cleavage; RNA array. Put shortly:
as §1

As for U55C U65A, the kcat in the series with glucosamine-6-phosphate [1] was found to be 0.00421 ± 0.00073 s⁻¹. Also, the KM with glucosamine-6-phosphate [2] was determined as 2040 ± 540 µM. The “self-cleavage kobs at 40 uM GlcN6P” value with glucosamine-6-phosphate [3] came out at 0.0001 ± 1.4e-05 s⁻¹. The “self-cleavage kobs at 160 uM GlcN6P” value with glucosamine-6-phosphate [4] turned out to be 0.00028 ± 7.3e-05 s⁻¹. In the series with glucosamine-6-phosphate [5], the “self-cleavage kobs at 640 uM GlcN6P” value amounted to 0.000826 ± 0.00017 s⁻¹. In addition, the “self-cleavage kobs at 2500 uM GlcN6P” value with glucosamine-6-phosphate [6] was determined as 0.00204 ± 0.00038 s⁻¹. For the same variant, in the series with glucosamine-6-phosphate [7], the “self-cleavage kobs at 10000 uM GlcN6P” value came to 0.00379 ± 0.00046 s⁻¹.
With A42G G44A, in the series with glucosamine-6-phosphate [1], the kcat turned out to be 0.00011 ± 2.6e-05 s⁻¹. The “self-cleavage kobs at 2500 uM GlcN6P” value with glucosamine-6-phosphate [6] was 7.65e-05 ± 1.8e-05 s⁻¹. The “self-cleavage kobs at 10000 uM GlcN6P” value with glucosamine-6-phosphate [7] worked out at 8.49e-05 ± 1.1e-05 s⁻¹.
As to A12G U65G C67A, the kcat with glucosamine-6-phosphate [1] was 0.000136 ± 1.4e-05 s⁻¹. Besides, the KM with glucosamine-6-phosphate [2] was determined as 3010 ± 610 µM. Besides, in the series with glucosamine-6-phosphate [6], the “self-cleavage kobs at 2500 uM GlcN6P” value was 6.02e-05 ± 1.2e-05 s⁻¹. In the series with glucosamine-6-phosphate [7], the “self-cleavage kobs at 10000 uM GlcN6P” value came to 0.000108 ± 3.2e-05 s⁻¹.
As for G40C C67U, the kcat with glucosamine-6-phosphate [1] stood at 0.000108 ± 1.3e-05 s⁻¹. For the same variant, in the series with glucosamine-6-phosphate [6], the “self-cleavage kobs at 2500 uM GlcN6P” value turned out to be 7.55e-05 ± 1.5e-05 s⁻¹. For the same variant, the “self-cleavage kobs at 10000 uM GlcN6P” value in the series with glucosamine-6-phosphate [7] was determined as 8.8e-05 ± 7e-06 s⁻¹.
For the variant G40U C70A, in the series with glucosamine-6-phosphate [1], the kcat came to 0.000457 ± 7.9e-05 s⁻¹. Moreover, in the series with glucosamine-6-phosphate [2], the KM was 1360 ± 460 µM. Also, the “self-cleavage kobs at 160 uM GlcN6P” value with glucosamine-6-phosphate [4] was found to be 3.45e-05 ± 1.4e-05 s⁻¹. Also, in the series with glucosamine-6-phosphate [5], the “self-cleavage kobs at 640 uM GlcN6P” value is 0.000149 ± 1.8e-05 s⁻¹. Besides, the “self-cleavage kobs at 2500 uM GlcN6P” value with glucosamine-6-phosphate [6] came to 0.000434 ± 7.3e-05 s⁻¹. In the series with glucosamine-6-phosphate [7], the “self-cleavage kobs at 10000 uM GlcN6P” value was determined as 0.000372 ± 4.6e-05 s⁻¹.
For G44U C67G, the kcat in the series with glucosamine-6-phosphate [1] turned out to be 0.0189 ± 0.0043 s⁻¹. In addition, the KM in the series with glucosamine-6-phosphate [2] was found to be 1120 ± 340 µM. Moreover, the “self-cleavage kobs at 40 uM GlcN6P” value with glucosamine-6-phosphate [3] came to 0.00061 ± 6.9e-05 s⁻¹. Besides, the “self-cleavage kobs at 160 uM GlcN6P” value with glucosamine-6-phosphate [4] worked out at 0.00226 ± 0.0003 s⁻¹. The “self-cleavage kobs at 640 uM GlcN6P” value with glucosamine-6-phosphate [5] was found to be 0.00865 ± 0.0011 s⁻¹. The “self-cleavage kobs at 2500 uM GlcN6P” value with glucosamine-6-phosphate [6] came out at 0.023 ± 0.0048 s⁻¹. In the series with glucosamine-6-phosphate [7], the “self-cleavage kobs at 10000 uM GlcN6P” value was determined as 0.0148 ± 0.0022 s⁻¹.
Take U31C G59U C68A: the kcat with glucosamine-6-phosphate [1] was 3.76e-05 ± 1.6e-05 s⁻¹.
With C61G G62U C68G, the catalytic constant (kcat) with glucosamine-6-phosphate [1] stood at 1.21e-05 ± 3.9e-06 s⁻¹.
Turning to G9U U69G, in the series with glucosamine-6-phosphate [1], the kcat came to 1.33e-05 ± 5.4e-06 s⁻¹. Further, the “self-cleavage kobs at 2500 uM GlcN6P” value with glucosamine-6-phosphate [6] is less than 1e-05 s⁻¹. For the same variant, in the series with glucosamine-6-phosphate [7], the “self-cleavage kobs at 10000 uM GlcN6P” value was less than 1e-05 s⁻¹.
As to G40A G41C A53G, in the series with glucosamine-6-phosphate [1], the kcat was 0.000315 ± 0.00011 s⁻¹. Also, the KM with glucosamine-6-phosphate [2] came to 3110 ± 1500 µM. In addition, in the series with glucosamine-6-phosphate [5], the “self-cleavage kobs at 640 uM GlcN6P” value was determined as 5.58e-05 ± 1.2e-05 s⁻¹. Moreover, in the series with glucosamine-6-phosphate [6], the “self-cleavage kobs at 2500 uM GlcN6P” value stood at 0.000139 ± 3.1e-05 s⁻¹.
Consider A6G U69G, for which, in the series with glucosamine-6-phosphate [1], the kcat stood at 1.01e-05 ± 1.6e-06 s⁻¹. Besides, the “self-cleavage kobs at 40 uM GlcN6P” value with glucosamine-6-phosphate [3] is less than 1e-05 s⁻¹.
Consider A12C C61U, for which the kcat in the series with glucosamine-6-phosphate [1] is 1.24e-05 ± 3.6e-06 s⁻¹. Further, the “self-cleavage kobs at 40 uM GlcN6P” value in the series with glucosamine-6-phosphate [3] is less than 1e-05 s⁻¹.
For G32C G37A U55A C67A C68A, the kcat with glucosamine-6-phosphate [1] was determined as 4.68e-05 ± 2.3e-05 s⁻¹. For the same variant, the “self-cleavage kobs at 640 uM GlcN6P” value in the series with glucosamine-6-phosphate [5] came to 7.47e-05 ± 3.5e-05 s⁻¹.
Take G38U C70A: the kcat with glucosamine-6-phosphate [1] stood at 1.31e-05 ± 3.3e-06 s⁻¹.
Consider G13U U31G, for which, in the series with glucosamine-6-phosphate [1], the kcat was 0.000294 ± 0.0001 s⁻¹. The “self-cleavage kobs at 160 uM GlcN6P” value with glucosamine-6-phosphate [4] came to 2.89e-05 ± 1.3e-05 s⁻¹. Also, in the series with glucosamine-6-phosphate [5], the “self-cleavage kobs at 640 uM GlcN6P” value came out at 4.24e-05 ± 8.5e-06 s⁻¹. Also, the “self-cleavage kobs at 2500 uM GlcN6P” value with glucosamine-6-phosphate [6] came to 0.000226 ± 2.7e-05 s⁻¹. The “self-cleavage kobs at 10000 uM GlcN6P” value with glucosamine-6-phosphate [7] came out at 0.000207 ± 2.6e-05 s⁻¹.
For the variant G37U C68G, the kcat with glucosamine-6-phosphate [1] amounted to 2.11e-05 ± 5e-06 s⁻¹.
As for G32U U57C, the kcat with glucosamine-6-phosphate [1] turned out to be 4.06e-05 ± 2.6e-06 s⁻¹. For the same variant, the KM with glucosamine-6-phosphate [2] stood at 2420 ± 550 µM. Moreover, the “self-cleavage kobs at 10000 uM GlcN6P” value with glucosamine-6-phosphate [7] worked out at 3.26e-05 ± 8.4e-06 s⁻¹.
In the case of A12U G43U, the kcat with glucosamine-6-phosphate [1] is 0.000148 ± 3e-05 s⁻¹. The “self-cleavage kobs at 640 uM GlcN6P” value with glucosamine-6-phosphate [5] stood at 2.86e-05 ± 1.1e-05 s⁻¹. Moreover, the “self-cleavage kobs at 2500 uM GlcN6P” value with glucosamine-6-phosphate [6] amounted to 0.000134 ± 2.2e-05 s⁻¹. In addition, the “self-cleavage kobs at 10000 uM GlcN6P” value in the series with glucosamine-6-phosphate [7] amounted to 0.00012 ± 1.2e-05 s⁻¹.
On to A14C C58G, for which, in the series with glucosamine-6-phosphate [1], the kcat was 0.000165 ± 6.6e-05 s⁻¹. Further, the “self-cleavage kobs at 640 uM GlcN6P” value with glucosamine-6-phosphate [5] is 3.92e-05 ± 1e-05 s⁻¹. Further, the “self-cleavage kobs at 2500 uM GlcN6P” value with glucosamine-6-phosphate [6] was 4.23e-05 ± 8.3e-06 s⁻¹. For the same variant, the “self-cleavage kobs at 10000 uM GlcN6P” value with glucosamine-6-phosphate [7] is 0.000108 ± 1.2e-05 s⁻¹.
For the variant A14U G41C, in the series with glucosamine-6-phosphate [1], the kcat was 8.09e-05 ± 1.1e-06 s⁻¹. The KM with glucosamine-6-phosphate [2] stood at 2290 ± 95 µM. Moreover, in the series with glucosamine-6-phosphate [6], the “self-cleavage kobs at 2500 uM GlcN6P” value was 4.2e-05 ± 1.3e-05 s⁻¹. Further, in the series with glucosamine-6-phosphate [7], the “self-cleavage kobs at 10000 uM GlcN6P” value was 6.58e-05 ± 1.4e-05 s⁻¹.
For A12U U55C, the kcat in the series with glucosamine-6-phosphate [1] was found to be 0.0176 ± 0.0056 s⁻¹. Also, the KM with glucosamine-6-phosphate [2] is 464 ± 200 µM. Also, the “self-cleavage kobs at 40 uM GlcN6P” value in the series with glucosamine-6-phosphate [3] came out at 0.0016 ± 0.00016 s⁻¹. The “self-cleavage kobs at 160 uM GlcN6P” value in the series with glucosamine-6-phosphate [4] came to 0.00304 ± 0.00062 s⁻¹. For the same variant, in the series with glucosamine-6-phosphate [5], the “self-cleavage kobs at 640 uM GlcN6P” value worked out at 0.0204 ± 0.0053 s⁻¹. For the same variant, in the series with glucosamine-6-phosphate [6], the “self-cleavage kobs at 2500 uM GlcN6P” value is 0.0186 ± 0.0045 s⁻¹. In the series with glucosamine-6-phosphate [7], the “self-cleavage kobs at 10000 uM GlcN6P” value turned out to be 0.0162 ± 0.0029 s⁻¹.
